Assay results: patent US20220185896A1 (NEW YORK UNIVERSITY, published 2022)

Experiments:
[1] = target: T1, cynomolgus galectin-9 CRD2 domain (cynomolgus monkey, UniProt A0A7N9IHL9 227-355); experiment: bead based binding
T1 construct: domain: CRD2; also called cynomolgus CRD2 domain; CRD2 domain of cynomolgus monkey galectin-9

[2] = target: T2, human galectin-9 CRD2 domain (human, UniProt O00182 227-355, limits assumed); experiment: bead based binding
T2 construct: domain: CRD2; also called CRD2 domain of galectin-9
T2 sequence (O00182 227-355 limits assumed): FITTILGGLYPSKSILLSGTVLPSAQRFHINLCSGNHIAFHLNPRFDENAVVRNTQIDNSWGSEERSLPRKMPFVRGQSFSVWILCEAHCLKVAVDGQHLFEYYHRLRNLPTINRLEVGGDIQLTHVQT

[3] = target: T3, mouse galectin-9 CRD2 domain (mouse, UniProt O08573 225-353, limits assumed); experiment: bead based binding
T3 construct: domain: CRD2; also called mouse CRD2 domain
T3 sequence (O08573 225-353 limits assumed): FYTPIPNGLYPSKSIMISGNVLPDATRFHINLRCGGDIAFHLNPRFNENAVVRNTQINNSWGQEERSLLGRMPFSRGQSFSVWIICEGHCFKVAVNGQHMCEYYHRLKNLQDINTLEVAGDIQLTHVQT

[4] = target: T4, rat galectin-9 CRD2 domain (rat, UniProt P97840 226-354, limits assumed); experiment: bead based binding
T4 construct: domain: CRD2; also called rat CRD2 domain
T4 sequence (P97840 226-354 limits assumed): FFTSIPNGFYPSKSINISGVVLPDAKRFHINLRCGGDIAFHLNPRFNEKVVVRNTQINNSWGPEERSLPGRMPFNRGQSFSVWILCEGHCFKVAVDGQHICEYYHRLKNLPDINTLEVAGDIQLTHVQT

[5] = target: T3, mouse galectin-9 CRD2 domain; experiment: SPR, One Step method on a Pioneer SPR
[6] = target: T5, human galectin-9 on the cell surface (CRL-2134 cell line; patient tumor-derived cells) (human, UniProt O00182 1-355); experiment: cell based saturation curve, surface staining of CRL-2134 cells (fraction of positive cells)
T5 construct: whole, on cells
T5 sequence (O00182 whole entry): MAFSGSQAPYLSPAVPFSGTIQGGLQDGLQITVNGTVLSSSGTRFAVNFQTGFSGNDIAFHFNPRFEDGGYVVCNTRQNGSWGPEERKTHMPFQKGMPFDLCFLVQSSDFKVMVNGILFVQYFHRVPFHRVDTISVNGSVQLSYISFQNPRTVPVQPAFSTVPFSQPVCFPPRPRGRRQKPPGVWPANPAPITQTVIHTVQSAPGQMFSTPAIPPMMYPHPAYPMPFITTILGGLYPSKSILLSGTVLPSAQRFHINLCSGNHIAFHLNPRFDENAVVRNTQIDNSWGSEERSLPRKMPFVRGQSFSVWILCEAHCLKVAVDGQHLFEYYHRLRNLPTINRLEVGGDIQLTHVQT

[7] = target: T6, human galectin-9 CRD1 domain (human, UniProt O00182 15-148, limits assumed); experiment: bead based binding to human galectin-9 CRD1 and CRD2 domains
T6 construct: domain: CRD1; also called CRD1 domain of galectin-9 protein
T6 sequence (O00182 15-148 limits assumed): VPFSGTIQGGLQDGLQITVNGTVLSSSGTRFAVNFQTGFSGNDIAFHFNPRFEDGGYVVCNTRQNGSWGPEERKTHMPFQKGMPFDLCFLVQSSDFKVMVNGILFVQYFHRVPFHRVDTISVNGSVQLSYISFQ

[8] = target: T2, human galectin-9 CRD2 domain; experiment: ELISA, antibody titrated over immobilized Galectin-9 CRD2

Kd [1] [nM] | Kd [2] [nM] | Kd [3] [nM] | Kd [4] [nM] | Kd [5] [nM] | Kd [6] [nM] | binding result [7] | Kd [8] [nM] | Binder
0.3 | 0.18 | 0.3 | 0.35 | 3.05 | 2.9 | no binding | 0.45 | G9.2-17 mIgG1 (mouse IgG1 version of G9.2-17) (antibody, V domains shown, Mouse IgG1 backbone; also called mIgG1 G9.2-17; G9.2-17 IgG1 mouse mAb) VH: EVQLVESGGGLVQPGGSLRLSCAASGFTVSSSSIHWVRQAPGKGLEWVAYISSSSGYTYYADSVKGRFTISADTSKNTAYLQMNSLRAEDTAVYYCARYWSYPSWWPYRGMDYWGQGTLVTVSS VL: DIQMTQSPSSLSASVGDRVTITCRASQSVSSAVAWYQQKPGKAPKLLIYSASSLYSGVPSRFSGSRSGTDFTLTISSLQPEDFATYYCQQSSTDPITFGQGTKVEIKR
 | 0.15 | 0.3 |  | 1.8 | 0.41 | no binding | 0.42 | anti-Galectin-9 antibody G9.2-17 (IgG4) (antibody, V domains shown, also called G9.2-17 (Ig4); G9.2-17 hIgG4 Fab Arm Exchange mut) VH: EVQLVESGGGLVQPGGSLRLSCAASGFTVSSSSIHWVRQAPGKGLEWVAYISSSSGYTYYADSVKGRFTISADTSKNTAYLQMNSLRAEDTAVYYCARYWSYPSWWPYRGMDYWGQGTLVTVSS VL: DIQMTQSPSSLSASVGDRVTITCRASQSVSSAVAWYQQKPGKAPKLLIYSASSLYSGVPSRFSGSRSGTDFTLTISSLQPEDFATYYCQQSSTDPITFGQGTKVEIKR
